Data reported in the supplement of paper PMC10065799, “High-throughput profiling of sequence recognition by tyrosine kinases and SH2 domains using bacterial peptide display” (eLife, 2023).

Legend:
SHP2-C SH2 = test: SH2 binding enrichment of the phosphorylated peptide, bacterial display (enrichment ratio); higher = better substrate or ligand; peptides without Tyr show the background
Grb2 SH2 = Grb2 SH2 (UniProt P62993); test: as above
c-Src SH2 = test: as above
FGFR3 = FGFR3 (UniProt P22607); test: phosphorylation enrichment, bacterial display (enrichment ratio); higher = better substrate or ligand; peptides without Tyr show the background
Fyn = Fyn (UniProt P06241); test: as above
Fer (mouse) = test: as above
FGFR1 = FGFR1 (UniProt P11362); test: as above
c-Src = test: as above
EPHB2 = EPHB2 (UniProt P29323); test: as above
c-Abl (mouse) = test: as above
EPHB1 = EPHB1 (UniProt P54762); test: as above
Fes = Fes (UniProt P07332); test: as above
Hck = Hck (UniProt P08631); test: as above
MERTK = MERTK (UniProt Q12866); test: as above
AncSZ = test: as above
Jak2 = Jak2 (UniProt O60674); test: as above
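Throughout, for SH2 binding enrichment of the phosphorylated peptide, bacterial display: peptide library displayed on the E. coli surface as eCPX fusions, selected cells deep-sequenced, score is each peptide's frequency after selection divided by its frequency in the input.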
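Throughout, for phosphorylation enrichment, bacterial display: 11-residue human phosphosite peptides and single-mutation variants displayed on the E. coli surface, counted by deep sequencing, each peptide's frequency after selection divided by its frequency in the unselected input library; frequency after pTyr selection over input frequency; kinase dosed for 20-30% of maximal phosphorylation in three min.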

Hck, sequence (P08631 whole entry, looked up): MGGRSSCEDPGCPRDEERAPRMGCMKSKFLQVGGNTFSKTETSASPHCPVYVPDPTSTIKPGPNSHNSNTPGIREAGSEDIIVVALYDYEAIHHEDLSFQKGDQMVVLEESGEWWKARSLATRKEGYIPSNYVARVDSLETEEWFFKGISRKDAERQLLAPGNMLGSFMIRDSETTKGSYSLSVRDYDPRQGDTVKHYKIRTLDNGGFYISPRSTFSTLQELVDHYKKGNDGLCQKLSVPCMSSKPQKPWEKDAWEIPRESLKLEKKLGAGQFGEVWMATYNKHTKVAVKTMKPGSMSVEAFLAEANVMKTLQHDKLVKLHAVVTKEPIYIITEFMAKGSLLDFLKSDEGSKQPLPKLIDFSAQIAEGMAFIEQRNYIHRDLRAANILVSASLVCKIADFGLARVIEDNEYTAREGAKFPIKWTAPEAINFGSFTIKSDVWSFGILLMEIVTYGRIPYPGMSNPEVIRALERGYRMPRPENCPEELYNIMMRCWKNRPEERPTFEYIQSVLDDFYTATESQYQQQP
EPHB2, sequence (P29323 whole entry, looked up): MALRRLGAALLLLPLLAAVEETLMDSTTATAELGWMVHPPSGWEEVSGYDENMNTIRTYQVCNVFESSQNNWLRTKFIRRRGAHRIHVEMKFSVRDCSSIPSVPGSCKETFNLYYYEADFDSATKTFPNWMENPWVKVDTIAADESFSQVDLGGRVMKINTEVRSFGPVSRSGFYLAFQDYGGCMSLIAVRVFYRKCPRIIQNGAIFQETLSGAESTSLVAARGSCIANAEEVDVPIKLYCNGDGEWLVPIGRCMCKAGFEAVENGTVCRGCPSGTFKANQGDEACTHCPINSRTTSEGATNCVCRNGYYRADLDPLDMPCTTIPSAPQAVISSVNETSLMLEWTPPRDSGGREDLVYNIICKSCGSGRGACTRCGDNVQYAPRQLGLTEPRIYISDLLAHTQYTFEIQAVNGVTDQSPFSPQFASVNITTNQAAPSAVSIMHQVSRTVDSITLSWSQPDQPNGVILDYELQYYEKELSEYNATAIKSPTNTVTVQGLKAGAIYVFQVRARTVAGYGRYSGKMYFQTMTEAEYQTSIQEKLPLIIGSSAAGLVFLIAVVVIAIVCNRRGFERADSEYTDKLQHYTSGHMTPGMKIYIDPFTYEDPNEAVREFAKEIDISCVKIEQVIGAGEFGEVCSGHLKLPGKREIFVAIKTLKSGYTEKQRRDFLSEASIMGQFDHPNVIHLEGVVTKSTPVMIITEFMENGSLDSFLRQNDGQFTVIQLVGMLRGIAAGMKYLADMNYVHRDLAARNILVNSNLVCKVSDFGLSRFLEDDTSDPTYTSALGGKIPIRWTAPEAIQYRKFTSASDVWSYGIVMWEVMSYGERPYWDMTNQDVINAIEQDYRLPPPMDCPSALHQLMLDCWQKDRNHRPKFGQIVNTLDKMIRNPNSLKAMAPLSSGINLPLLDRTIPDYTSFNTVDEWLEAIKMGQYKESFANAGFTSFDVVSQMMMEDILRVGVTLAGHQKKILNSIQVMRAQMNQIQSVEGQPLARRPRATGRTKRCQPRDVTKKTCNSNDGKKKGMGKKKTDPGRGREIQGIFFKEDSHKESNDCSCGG
EPHB1, sequence (P54762 whole entry, looked up): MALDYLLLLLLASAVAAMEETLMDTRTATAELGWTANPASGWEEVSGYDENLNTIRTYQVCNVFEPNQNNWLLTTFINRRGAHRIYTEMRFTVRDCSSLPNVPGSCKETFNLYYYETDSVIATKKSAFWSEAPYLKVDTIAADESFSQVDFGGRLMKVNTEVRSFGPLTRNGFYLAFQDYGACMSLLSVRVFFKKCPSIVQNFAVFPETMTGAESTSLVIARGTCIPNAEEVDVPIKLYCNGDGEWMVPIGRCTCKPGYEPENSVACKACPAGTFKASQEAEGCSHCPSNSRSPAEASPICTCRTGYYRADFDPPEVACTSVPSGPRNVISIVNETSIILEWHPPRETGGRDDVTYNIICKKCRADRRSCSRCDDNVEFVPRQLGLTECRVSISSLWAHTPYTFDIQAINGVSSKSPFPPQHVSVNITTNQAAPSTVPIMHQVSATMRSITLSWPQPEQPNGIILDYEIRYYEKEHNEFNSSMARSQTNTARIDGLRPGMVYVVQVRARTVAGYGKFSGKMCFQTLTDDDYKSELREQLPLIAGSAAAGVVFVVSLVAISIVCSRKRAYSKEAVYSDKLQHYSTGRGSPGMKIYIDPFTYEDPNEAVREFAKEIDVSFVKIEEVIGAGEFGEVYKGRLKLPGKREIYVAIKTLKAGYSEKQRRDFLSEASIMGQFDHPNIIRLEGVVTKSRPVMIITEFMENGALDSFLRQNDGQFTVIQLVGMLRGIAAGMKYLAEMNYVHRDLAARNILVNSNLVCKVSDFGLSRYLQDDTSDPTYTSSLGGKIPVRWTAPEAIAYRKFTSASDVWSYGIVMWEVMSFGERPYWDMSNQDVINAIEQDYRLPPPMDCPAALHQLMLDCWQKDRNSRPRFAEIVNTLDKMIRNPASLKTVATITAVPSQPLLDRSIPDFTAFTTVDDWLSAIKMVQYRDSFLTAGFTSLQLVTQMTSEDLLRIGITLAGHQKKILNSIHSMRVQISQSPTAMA
FGFR1, sequence (P11362 whole entry, looked up): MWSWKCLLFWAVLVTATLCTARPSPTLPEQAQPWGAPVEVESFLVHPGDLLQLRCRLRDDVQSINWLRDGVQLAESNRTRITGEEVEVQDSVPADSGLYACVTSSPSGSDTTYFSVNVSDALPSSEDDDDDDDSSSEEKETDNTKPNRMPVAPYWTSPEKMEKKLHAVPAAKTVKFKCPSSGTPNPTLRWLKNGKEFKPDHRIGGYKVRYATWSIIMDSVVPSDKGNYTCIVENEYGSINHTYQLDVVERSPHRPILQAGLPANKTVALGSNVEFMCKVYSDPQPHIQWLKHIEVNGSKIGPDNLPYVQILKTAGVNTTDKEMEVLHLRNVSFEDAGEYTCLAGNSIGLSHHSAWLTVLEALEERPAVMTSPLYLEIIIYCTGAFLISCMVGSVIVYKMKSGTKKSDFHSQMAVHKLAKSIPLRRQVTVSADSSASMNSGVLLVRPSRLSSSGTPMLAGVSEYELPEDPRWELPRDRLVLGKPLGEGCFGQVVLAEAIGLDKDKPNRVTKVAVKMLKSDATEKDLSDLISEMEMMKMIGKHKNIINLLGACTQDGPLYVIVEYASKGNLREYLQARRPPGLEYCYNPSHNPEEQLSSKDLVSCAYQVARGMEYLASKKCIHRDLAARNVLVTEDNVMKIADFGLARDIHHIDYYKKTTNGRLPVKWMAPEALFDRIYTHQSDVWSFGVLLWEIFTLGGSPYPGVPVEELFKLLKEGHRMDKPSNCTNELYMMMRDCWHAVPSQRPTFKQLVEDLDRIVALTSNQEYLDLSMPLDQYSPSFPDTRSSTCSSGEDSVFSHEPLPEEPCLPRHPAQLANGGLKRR
MERTK, sequence (Q12866 whole entry, looked up): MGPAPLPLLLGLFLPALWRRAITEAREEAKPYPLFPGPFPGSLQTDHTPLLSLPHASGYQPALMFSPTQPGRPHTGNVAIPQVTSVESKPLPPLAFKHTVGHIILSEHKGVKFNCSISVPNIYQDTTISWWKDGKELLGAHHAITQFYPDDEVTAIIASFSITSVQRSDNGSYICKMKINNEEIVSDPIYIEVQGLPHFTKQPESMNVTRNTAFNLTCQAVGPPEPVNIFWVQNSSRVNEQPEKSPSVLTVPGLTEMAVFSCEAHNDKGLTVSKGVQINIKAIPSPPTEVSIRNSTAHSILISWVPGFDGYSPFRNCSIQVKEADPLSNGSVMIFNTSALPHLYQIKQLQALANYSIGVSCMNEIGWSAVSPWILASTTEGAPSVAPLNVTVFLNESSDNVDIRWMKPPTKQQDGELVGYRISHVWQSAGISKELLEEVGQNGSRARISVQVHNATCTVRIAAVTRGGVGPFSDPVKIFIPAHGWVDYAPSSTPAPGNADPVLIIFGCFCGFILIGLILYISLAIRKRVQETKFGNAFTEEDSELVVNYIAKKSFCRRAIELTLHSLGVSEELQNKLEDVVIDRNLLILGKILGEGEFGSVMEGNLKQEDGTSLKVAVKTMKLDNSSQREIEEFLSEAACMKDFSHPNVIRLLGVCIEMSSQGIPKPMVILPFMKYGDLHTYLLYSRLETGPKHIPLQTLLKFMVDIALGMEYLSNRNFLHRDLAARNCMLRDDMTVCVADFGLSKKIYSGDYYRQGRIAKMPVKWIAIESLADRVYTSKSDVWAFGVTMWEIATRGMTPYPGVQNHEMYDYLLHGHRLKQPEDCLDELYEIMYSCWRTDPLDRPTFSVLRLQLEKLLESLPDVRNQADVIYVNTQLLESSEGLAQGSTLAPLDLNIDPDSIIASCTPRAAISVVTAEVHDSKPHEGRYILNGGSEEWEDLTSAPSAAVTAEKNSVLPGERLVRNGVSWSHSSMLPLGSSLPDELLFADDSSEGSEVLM
Grb2 SH2, sequence (P62993 whole entry, looked up): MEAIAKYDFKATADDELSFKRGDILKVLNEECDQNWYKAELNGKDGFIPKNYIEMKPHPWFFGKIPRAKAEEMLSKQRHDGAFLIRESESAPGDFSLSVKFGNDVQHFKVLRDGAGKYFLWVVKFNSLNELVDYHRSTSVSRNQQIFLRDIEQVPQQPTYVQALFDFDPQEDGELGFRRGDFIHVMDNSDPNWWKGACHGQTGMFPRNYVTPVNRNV

Row | Sequence | SH2 binding enrichment (SHP2-C SH2) | SH2 binding enrichment (Grb2 SH2) | SH2 binding enrichment (c-Src SH2) | phosphorylation enrichment (FGFR3) | phosphorylation enrichment (Fyn) | phosphorylation enrichment (Fer (mouse)) | phosphorylation enrichment (FGFR1) | phosphorylation enrichment (c-Src) | phosphorylation enrichment (EPHB2) | phosphorylation enrichment (c-Abl (mouse)) | phosphorylation enrichment (EPHB1) | phosphorylation enrichment (Fes) | phosphorylation enrichment (Hck) | phosphorylation enrichment (MERTK) | phosphorylation enrichment (AncSZ) | phosphorylation enrichment (Jak2)
1 | EILLSYPRTGY [TGM1_Y365_L366P] | 0.699 | 0.929 | 0.58 | 0.47 | 0.418 | 0.49 | 0.445 | 0.448 | 0.456 | 0.658 | 0.397 | 0.789 | 0.371 | 0.379 | 0.626 | 0.867
2 | EKKKYYDAKIE [CASP5_Y104_T106A] | 0.668 | 1.07 | 0.522 | 0.781 | 0.588 | 0.475 | 0.526 | 0.64 | 0.326 | 0.609 | 0.679 | 0.978 | 0.449 | 0.473 | 0.777 | 0.912
3 | EKMWTYMPSAE [GRIA4_Y695_R697P] | 0.444 | 0.92 | 0.524 | 0.623 | 0.377 | 0.396 | 0.448 | 0.329 | 0.474 | 0.538 | 0.504 | 0.841 | 0.509 | 0.363 | 0.768 | 0.652
4 | EKNANYKEGTF [CLRN1_Y171_I168N_YF] | 0.874 | 0.944 | 0.503 | 0.46 | 0.452 | 0.397 | 0.401 | 0.389 | 0.445 | 0.647 | 0.346 | 0.757 | 0.381 | 0.425 | 0.715 | 0.635
5 | EKQVAYCPSGR [ROS1_Y2323_K2328R] | 0.59 | 1.01 | 0.631 | 0.705 | 0.569 | 0.675 | 0.531 | 0.782 | 0.615 | 1.06 | 0.511 | 1.18 | 0.501 | 0.667 | 2.05 | 1.27
6 | ELANLYHHVCM [BICD2_Y538] | 0.597 | 0.673 | 0.783 | 1.49 | 0.869 | 1.77 | 1.57 | 1.47 | 0.708 | 0.982 | 0.666 | 1.05 | 2.17 | 1.24 | 1.17 | 1.23
7 | ELAVNYQEQAS [SLC9A9_Y591_I589V] | 0.678 | 0.964 | 0.563 | 0.883 | 0.534 | 0.519 | 0.605 | 0.496 | 0.694 | 0.66 | 0.563 | 1.06 | 0.559 | 0.435 | 0.96 | 0.829
8 | ENRKFYKDLKE [PURA_Y156_M157K_YF] | 0.739 | 0.847 | 0.426 | 0.493 | 0.418 | 0.387 | 0.401 | 0.422 | 0.552 | 0.431 | 0.312 | 0.699 | 0.473 | 0.589 | 0.532 | 0.536
9 | ENRKYYKDLKE [PURA_Y156_M157K] | 0.574 | 0.713 | 0.592 | 0.457 | 0.359 | 0.318 | 0.359 | 0.352 | 0.298 | 0.549 | 0.34 | 0.766 | 0.295 | 0.34 | 0.55 | 0.772
10 | EPGSLYGCGGG [ATM_Y2019_D2016G] | 0.695 | 1.24 | 0.589 | 0.567 | 0.851 | 0.818 | 0.52 | 0.918 | 0.527 | 0.584 | 0.548 | 0.803 | 2.19 | 0.634 | 0.77 | 0.707
11 | EPTPGYEVSQR [TSC2_Y1788_G1791S] | 0.629 | 0.858 | 0.56 | 0.641 | 0.437 | 0.447 | 0.46 | 0.383 | 0.549 | 0.615 | 0.434 | 0.888 | 0.441 | 0.427 | 0.83 | 0.706
12 | EPVSDYINADI [PTPN11_Y304_N308D] | 0.437 | 0.761 | 0.464 | 0.908 | 0.581 | 0.614 | 0.77 | 0.514 | 0.689 | 9 | 0.695 | 1.33 | 0.637 | 0.492 | 1.5 | 1.12
13 | EQKKFYNAMKK [SCN5A_Y1495_YF] | 0.955 | 1.06 | 0.859 | 0.339 | 0.325 | 0.34 | 0.394 | 0.373 | 0.317 | 0.52 | 0.299 | 0.576 | 0.367 | 0.379 | 0.484 | 0.569
14 | EQKKFYNAVKK [SCN5A_Y1495_M1498V_YF] | 0.646 | 0.966 | 0.648 | 0.35 | 0.392 | 0.402 | 0.35 | 0.461 | 0.407 | 0.531 | 0.417 | 0.57 | 0.429 | 0.482 | 0.499 | 1.06
15 | EQLRAYLEGTC [HLA-C_Y183] | 0.707 | 0.844 | 0.561 | 0.692 | 0.453 | 0.558 | 0.843 | 0.423 | 0.591 | 0.53 | 0.467 | 1.08 | 0.55 | 0.403 | 1.02 | 0.866
16 | ERDFTYDELLN [EIF2S2_Y176_E177D_YF] | 0.789 | 1.07 | 1.2 | 0.815 | 0.667 | 0.638 | 0.58 | 0.796 | 0.598 | 0.894 | 0.616 | 1.33 | 0.994 | 0.537 | 1.53 | 1.46
17 | EREFKYGAHKF [OAT_Y50_N54K_YF] | 0.585 | 0.846 | 0.464 | 0.438 | 0.443 | 0.329 | 0.424 | 0.423 | 0.412 | 0.496 | 0.339 | 0.738 | 0.427 | 0.392 | 0.599 | 0.571

Row | Sequence | SH2 binding enrichment (SHP2-C SH2) | SH2 binding enrichment (Grb2 SH2) | SH2 binding enrichment (c-Src SH2) | phosphorylation enrichment (FGFR3) | phosphorylation enrichment (Fyn) | phosphorylation enrichment (Fer (mouse)) | phosphorylation enrichment (FGFR1) | phosphorylation enrichment (c-Src) | phosphorylation enrichment (EPHB2) | phosphorylation enrichment (c-Abl (mouse)) | phosphorylation enrichment (EPHB1) | phosphorylation enrichment (Fes) | phosphorylation enrichment (Hck) | phosphorylation enrichment (MERTK) | phosphorylation enrichment (AncSZ) | phosphorylation enrichment (Jak2)
18 | ESDYTYSSSYE [SRPK2_Y427] | 0.734 | 0.829 | 1.15 | 1.06 | 1.11 | 0.68 | 1.12 | 1.43 | 1.45 | 0.725 | 1.3 | 1.15 | 0.86 | 0.486 | 2.42 | 0.852
19 | ETEMLYGSAPR [PRC1_Y464] | 0.686 | 0.784 | 0.437 | 0.557 | 6.44 | 6.32 | 0.474 | 5.25 | 0.513 | 0.716 | 0.433 | 0.805 | 6.51 | 0.414 | 0.889 | 0.556
20 | ETGNLYIAKVE [CNTN4_Y180] | 0.533 | 0.705 | 0.276 | 0.62 | 0.448 | 0.441 | 0.405 | 0.391 | 0.52 | 0.635 | 0.522 | 0.89 | 0.479 | 0.336 | 0.896 | 0.757
21 | EVVGRYSGHNA [MLH1_Y183_V185G] | 0.629 | 0.768 | 0.448 | 0.48 | 0.414 | 0.397 | 0.405 | 0.34 | 0.4 | 0.368 | 0.434 | 0.514 | 0.403 | 0.426 | 0.464 | 0.397
22 | EWKNNYPRLRE [OPA1_Y582] | 0.55 | 0.738 | 0.453 | 0.483 | 0.422 | 0.4 | 0.383 | 0.371 | 0.442 | 0.797 | 0.337 | 0.607 | 0.441 | 0.404 | 0.563 | 0.564
23 | FADPFYDFEIE [ZC3H18_Y372_YF] | 0.8 | 1.42 | 0.693 | 0.708 | 3.26 | 0.752 | 0.57 | 3.4 | 0.687 | 0.817 | 0.785 | 1.19 | 0.674 | 0.555 | 1.36 | 1.12
24 | FAGRDYSLDEF [MYOF_Y1705_G1701A_YF] | 0.712 | 0.699 | 0.69 | 0.708 | 0.454 | 0.451 | 0.497 | 0.572 | 0.567 | 0.639 | 0.433 | 0.969 | 0.51 | 0.45 | 0.986 | 1.01
25 | FASTGYGIAIQ [GRIN2B_Y762] | 0.647 | 0.721 | 0.452 | 0.55 | 0.499 | 0.375 | 0.557 | 0.408 | 0.456 | 0.739 | 0.575 | 0.92 | 0.484 | 0.408 | 0.655 | 0.605
26 | FCVDCYKNFVA [FHL1_Y213_YF] | 1.02 | 1.2 | 0.946 | 0.617 | 0.562 | 0.523 | 0.57 | 0.461 | 0.751 | 0.776 | 0.533 | 0.957 | 0.529 | 0.487 | 0.862 | 0.898
27 | FCVVRYCWLRR [MPZ_Y181_Y177C] | 0.515 | 0.581 | 0.539 | 0.709 | 0.606 | 0.404 | 0.552 | 0.738 | 0.603 | 0.773 | 0.45 | 0.76 | 0.577 | 0.656 | 0.718 | 0.586
28 | FDAHIYEGCVI [PRKCD_Y64_R67C] | 0.758 | 0.713 | 0.5 | 0.831 | 2.48 | 10.5 | 0.563 | 3.34 | 0.639 | 0.938 | 0.656 | 1.44 | 2.53 | 0.635 | 1.39 | 1.05
29 | FDEFRYRSVIK [CFTR_Y517_YF] | 0.527 | 0.812 | 0.444 | 0.484 | 0.41 | 0.409 | 0.466 | 0.46 | 0.472 | 0.544 | 0.39 | 0.804 | 0.498 | 0.463 | 0.768 | 0.607
30 | FDGGCYEQLFV [MC4R_Y41_S36Y_YF] | 0.654 | 0.709 | 0.485 | 1.33 | 1.81 | 10.7 | 1.05 | 2.46 | 1.07 | 0.748 | 1.09 | 1.49 | 2.67 | 0.875 | 2.53 | 1.43
31 | FDGKDYIALKE [HLA-A_Y147_N151K_YF] | 0.677 | 0.919 | 0.499 | 0.44 | 0.376 | 0.379 | 0.398 | 0.489 | 0.43 | 0.536 | 0.407 | 0.672 | 0.363 | 0.406 | 0.952 | 0.659
32 | FDNPVCQKTTE [LDLR_Y828_Y828C] | 0.812 | 0.969 | 0.563 | 0.774 | 0.573 | 0.528 | 0.57 | 0.523 | 0.653 | 0.877 | 0.485 | 1.18 | 0.603 | 0.477 | 1.1 | 0.875
33 | FEEDSYVTRSQ [RET_Y905_K907T_YF] | 0.548 | 0.878 | 0.419 | 1.08 | 0.5 | 0.529 | 0.452 | 0.617 | 0.829 | 0.912 | 0.651 | 1.33 | 0.531 | 0.47 | 1.18 | 1.27
